Experimental data from PMC12167484, “Specific phosphoinositide interaction of Jps1 is a key feature during unconventional secretion in Ustilago maydis” (The Journal of Biological Chemistry, 2025).

Tests used:
Cts1 = molecular target: T1, Cts1 (Mycosarcoma maydis, UniProt A0A0D1DVM8); assay: fluorogenic chitinase assay, intact cells or native extract; format: cell-based; details: KHM buffer (110 mM potassium acetate, 20 mM Hepes, 2 mM MgCl2), 25 °C
T1 construct: gene UMAG_10419; native Cts1, extracellular on intact U. maydis AB33 cells or in native cell extracts
T1 sequence (A0A0D1DVM8 1-502): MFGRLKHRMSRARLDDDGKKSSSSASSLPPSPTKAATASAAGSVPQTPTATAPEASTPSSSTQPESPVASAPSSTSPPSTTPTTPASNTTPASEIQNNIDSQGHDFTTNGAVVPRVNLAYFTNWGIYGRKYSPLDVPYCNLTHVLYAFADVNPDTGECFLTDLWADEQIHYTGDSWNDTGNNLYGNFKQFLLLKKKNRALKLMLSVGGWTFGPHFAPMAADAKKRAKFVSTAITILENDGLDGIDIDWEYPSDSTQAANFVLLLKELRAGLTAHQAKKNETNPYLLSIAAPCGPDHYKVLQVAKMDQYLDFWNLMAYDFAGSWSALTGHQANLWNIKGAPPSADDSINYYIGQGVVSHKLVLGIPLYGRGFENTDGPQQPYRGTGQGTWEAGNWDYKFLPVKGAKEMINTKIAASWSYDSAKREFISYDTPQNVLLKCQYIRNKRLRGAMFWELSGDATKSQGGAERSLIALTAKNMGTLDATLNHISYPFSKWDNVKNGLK

[1] = molecular target: Hebeloma cylindrosporum Jps1, full-length recombinant (Hebeloma cylindrosporum); assay: SEC-MALS; after SEC purification the sample was applied to a Superdex 200 10/30 column coupled to a miniDAWN TREOS light scattering detector and a refractive index detector; monomer to dimer
UmJps1 (Jps1^1-609) = molecular target: T2, UmJps1 (Jps1^1-609) (Mycosarcoma maydis, UniProt A0A0D1C3B2); assay: liposome co-sedimentation, SDS-PAGE; format: binding; details: DOPC:cholesterol:PIP 80:15:5 (with cholesterol); protein:lipid 1:5000; pH 7.5, room temperature
T2 construct: gene UMAG_03776; full length, 609 residues; 6xHis-Jps1 made in E. coli Rosetta(DE3) pLyS (pET22b, C-terminal His-tag in strip assay); homodimer 134 kDa
T2 sequence (A0A0D1C3B2 1-609): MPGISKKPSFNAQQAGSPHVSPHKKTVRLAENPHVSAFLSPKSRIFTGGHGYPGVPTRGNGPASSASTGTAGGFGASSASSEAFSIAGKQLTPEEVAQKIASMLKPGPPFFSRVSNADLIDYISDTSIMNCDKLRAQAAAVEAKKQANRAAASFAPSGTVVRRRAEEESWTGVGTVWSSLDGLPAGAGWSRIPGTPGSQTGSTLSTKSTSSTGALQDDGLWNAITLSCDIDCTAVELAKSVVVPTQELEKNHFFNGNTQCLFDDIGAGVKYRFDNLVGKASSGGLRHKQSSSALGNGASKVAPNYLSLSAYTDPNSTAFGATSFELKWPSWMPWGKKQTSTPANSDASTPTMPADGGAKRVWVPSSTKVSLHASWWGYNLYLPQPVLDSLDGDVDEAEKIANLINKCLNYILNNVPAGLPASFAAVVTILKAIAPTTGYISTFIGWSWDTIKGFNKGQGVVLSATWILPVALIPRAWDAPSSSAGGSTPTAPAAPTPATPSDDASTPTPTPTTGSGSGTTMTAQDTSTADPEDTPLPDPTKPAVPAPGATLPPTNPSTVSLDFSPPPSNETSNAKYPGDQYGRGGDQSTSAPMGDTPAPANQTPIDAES

HcJps1 = molecular target: T3, HcJps1 (Hebeloma cylindrosporum, UniProt A0A0C3CFZ0); assay: surface plasmon resonance, immobilised liposomes, steady-state affinity; format: binding; details: DOPC/PI(4,5)P2 liposomes (1 mM lipid) on LP chip, DOPC reference; 20 mM Hepes pH 7.5, 20 mM KCl, 200 mM NaCl; 0.2-6.4 μM protein
T3 construct: gene M413DRAFT_206302; full length, 287 residues; 6xHis-GB1 fusion made in E. coli (GB1 tag cleaved with TEV before SEC; codon-optimised gene for U. maydis)
T3 sequence (A0A0C3CFZ0 1-287): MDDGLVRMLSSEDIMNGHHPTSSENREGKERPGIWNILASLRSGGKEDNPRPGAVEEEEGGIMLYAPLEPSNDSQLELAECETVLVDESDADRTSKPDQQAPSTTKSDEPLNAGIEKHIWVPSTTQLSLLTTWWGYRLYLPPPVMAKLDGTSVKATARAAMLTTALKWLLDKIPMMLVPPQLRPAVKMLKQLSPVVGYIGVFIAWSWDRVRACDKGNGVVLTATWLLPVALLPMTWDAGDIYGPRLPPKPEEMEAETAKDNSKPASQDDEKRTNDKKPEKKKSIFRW

[2] = molecular target: Sporisorium reilianum Jps1, full-length recombinant (Sporisorium reilianum); assay: mass photometry; TwoMP mass photometer, protein at 10 nM in Hepes buffer, room temperature; monomer to dimer
[3] = molecular target: Sporisorium reilianum Jps1, full-length recombinant (Sporisorium reilianum); assay: SEC-MALS; after SEC purification the sample was applied to a Superdex 200 10/30 column coupled to a miniDAWN TREOS light scattering detector and a refractive index detector; monomer to dimer
[4] = molecular target: Ustilago maydis Jps1, full-length recombinant (Jps1^1-609) (Ustilago maydis); assay: mass photometry; TwoMP mass photometer, protein at 10 nM in Hepes buffer, room temperature; monomer to dimer
[5] = molecular target: Ustilago maydis Jps1, full-length recombinant (Jps1^1-609) (Ustilago maydis); assay: SEC-MALS; after SEC purification the sample was applied to a Superdex 200 10/30 column coupled to a miniDAWN TREOS light scattering detector and a refractive index detector; monomer to dimer
[6] = molecular target: Ustilago maydis Jps1^1-484 (lacking the unstructured C-terminus) (Ustilago maydis); assay: as above
[7] = molecular target: Ustilago maydis Jps1^1-484 (lacking the unstructured C-terminus) (Ustilago maydis); assay: SAXS; P12 beamline, batch mode, 10 °C, 0.6 mg/ml purified Jps1^1-484; rigid body modeling of the dimer with CORAL

## CC(=O)N[C@H]1[C@H](Oc2ccc3c(C)cc(=O)oc3c2)O[C@H](CO)[C@@H](O[C@@H]2O[C@H](CO)[C@@H](O[C@@H]3O[C@H](CO)[C@@H](O)[C@H](O)[C@H]3NC(C)=O)[C@H](O)[C@H]2NC(C)=O)[C@@H]1O [MUC, 4-methylumbelliferyl-β-D-N, N′, N’’-triacetylchitotrioside]
Cts1
  fluorogenic chitinase assay, intact cells or native extract: MUC, a fluorogenic substrate 4-methylumbelliferyl-β-D-N, N′, N’’-triacetylchitotrioside

## Hebeloma cylindrosporum Jps1, full-length recombinant (natural protein)
[1]
  stoichiometry N: 2

## PI(4,5)P2
UmJps1 (Jps1^1-609)
  % of input protein bound: ~ 50%
HcJps1
  Kd: 900 nM

## Sporisorium reilianum Jps1, full-length recombinant (natural protein)
[2]
  stoichiometry N: 2
[3]
  stoichiometry N: 2

## Ustilago maydis Jps1, full-length recombinant (Jps1^1-609) (natural protein)
[4]
  percent of particles in the dimer fraction: 69%
  stoichiometry N: 2
[5]
  stoichiometry N: 2

## Ustilago maydis Jps1^1-484 (lacking the unstructured C-terminus) (domain or fragment)
[6]
  stoichiometry N: 2
[7]
  stoichiometry N: 2
